Results published in doi:10.1101/2022.05.21.492554.

Biological target: ACE2-Fc (UniProt Q9BYF1)
Assay: SPR

ACE2-Fc, sequence (Q9BYF1 18-740): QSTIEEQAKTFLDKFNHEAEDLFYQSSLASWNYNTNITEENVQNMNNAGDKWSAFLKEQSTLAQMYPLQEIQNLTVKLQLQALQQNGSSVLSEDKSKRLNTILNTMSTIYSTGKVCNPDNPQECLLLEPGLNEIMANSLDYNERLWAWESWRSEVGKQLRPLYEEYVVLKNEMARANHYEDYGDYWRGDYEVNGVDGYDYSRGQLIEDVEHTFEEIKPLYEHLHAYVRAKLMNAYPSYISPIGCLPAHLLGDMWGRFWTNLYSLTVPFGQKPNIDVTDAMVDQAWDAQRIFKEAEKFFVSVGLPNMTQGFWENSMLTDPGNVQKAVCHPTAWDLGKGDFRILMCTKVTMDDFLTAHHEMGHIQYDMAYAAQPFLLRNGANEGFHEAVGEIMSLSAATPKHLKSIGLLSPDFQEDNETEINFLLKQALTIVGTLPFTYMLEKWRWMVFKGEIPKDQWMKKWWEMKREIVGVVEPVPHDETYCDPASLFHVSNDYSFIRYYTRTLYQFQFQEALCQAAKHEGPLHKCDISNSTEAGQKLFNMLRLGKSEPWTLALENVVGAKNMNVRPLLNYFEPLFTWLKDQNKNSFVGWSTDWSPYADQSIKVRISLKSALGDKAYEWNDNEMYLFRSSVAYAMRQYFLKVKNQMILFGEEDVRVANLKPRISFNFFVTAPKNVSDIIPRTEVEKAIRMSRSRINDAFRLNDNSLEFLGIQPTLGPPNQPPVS

Wuhan RBD
Kd: 7.3 nM | koff: 0.0051 s⁻¹
